Amyloid nucleation score data for 53 substances are collected here from the supplement of paper PMC12042874.

± gives the uncertainty stated by the source.

The data set in a line: amyloid nucleation score (Sup35N fusion, yeast selection) (log enrichment); library NNK3; higher = more nucleation; inactive = no reads after selection. A digest of the protocol:
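Nucleation score: DiMSum log enrichment of output over input reads, centred on the mode score of non-aggregating sequences. Only sequences with at least 100 input reads were kept. Reads came from Illumina sequencing of plasmid inserts before and after 7 days of growth at 30°C without adenine and uracil, in psi-negative yeast expressing Sup35N fused to peptides of 20 random codons after 24 hours of induction with 100 μM copper sulfate.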
As to HCDCTFYSSLGFIGGTWDSC, the amyloid nucleation score result is “inactive”.

VFYIIW gave an amyloid nucleation score of 1.89 ± 0.063.

The substance RSRKLCNPIMILLQVFGNYG gave an amyloid nucleation score of 1.43 ± 0.07.

For the substance FKTFSFFKLFCTYCYYTLTE, the amyloid nucleation score entry is “inactive”.

Turning to MCGQE, the amyloid nucleation score entry was “inactive”.

Take RSWLLSSEFVVVIFSNTEGM: the amyloid nucleation score was 1.24 ± 0.16.

Regarding HTDIMIWFRSCYYFLSFFMY, the amyloid nucleation score entry was “inactive”.

VKGIEVNRLMFEERISGCYV: the amyloid nucleation score entry is “inactive”.

As to YVNLHPMLATAAIYVNSSAG, the amyloid nucleation score result was “inactive”.

Turning to SISMQVNHPEY, the amyloid nucleation score entry was “inactive”.

For the substance YIPVSTFM, the amyloid nucleation score is -0.135 ± 0.6.

As for SYGPRPYTHHSPHAAGMTLE, the amyloid nucleation score result is “inactive”.

For WTRNTKLVEIIKMYYQNVNL, the amyloid nucleation score result was “inactive”.

For the substance MNYWHNYFSLYDHLLMSKCC, the amyloid nucleation score entry is “inactive”.

As for YLNISILFNCVWDKVFFRYH, the amyloid nucleation score result is “inactive”.

In the case of RYCIVLTDNVNTLHNLIIMV, the amyloid nucleation score entry was “inactive”.

The substance MVLLI yielded an amyloid nucleation score of -0.031 ± 1.

As to SWFVHKFSIRYNLFDFSYIF, the amyloid nucleation score entry was “inactive”.

As to FTSYS, the amyloid nucleation score result was “inactive”.

Take CKRLPIACLTSLTKAR: the amyloid nucleation score result is “inactive”.

Regarding ECLKPCSSNCTNRPTARPQC, the amyloid nucleation score entry is “inactive”.

Take MAAFVCSFEFSLGSTCSMGG: the amyloid nucleation score entry was “inactive”.

Turning to NRQVNCSFEGFSNRSKVYAY, the amyloid nucleation score result was “inactive”.

As for FMYKLSLLVCDKWLIVILPF, the amyloid nucleation score entry is “inactive”.

In the case of VQSMKMGPVRISKCNDKSER, the amyloid nucleation score result is “inactive”.

For CRLSGEYFIDTDPEVFLALM, the amyloid nucleation score is 0.397 ± 0.17.

LGEWYWYYFFRARR: the amyloid nucleation score result is “inactive”.

In the case of SFTYTRQSGSNLEAVGTFPH, the amyloid nucleation score is -0.373 ± 0.69.

In the case of TLLFDPMLNA, the amyloid nucleation score result was “inactive”.

Consider GCINKDDYKSDCWSFYKTE, for which the amyloid nucleation score result was “inactive”.

Consider PLCWNLNIRDTGIYRPRMRP, for which the amyloid nucleation score result is “inactive”.

For the substance FYYYLCYDIVAISVLMNLPY, the amyloid nucleation score result is “inactive”.

In turn, DISFLSRSRYRKSHGVVNFS displayed an amyloid nucleation score of 0.206 ± 0.43.

SVGGEWRS came in with an amyloid nucleation score of 1.34 ± 0.14.

As for GFGYCVWQESGNLRGCRWLW, the amyloid nucleation score was found to be 0.5 ± 0.39.

RGTKAYMGVVCSTPTIFCPN: the amyloid nucleation score result was “inactive”.

SGCLFAYSWSGCTLVRYDVF displayed an amyloid nucleation score of -0.416 ± 0.45.

The substance KYDVGVYLYLLLPTNCRQQW showed an amyloid nucleation score of 1.46 ± 0.12.

Regarding LQVARIMVSWIDQCGENRTD, the amyloid nucleation score result was “inactive”.

Consider GQYPEYYWYLGTEFFTVVLF, for which the amyloid nucleation score result is “inactive”.

In turn, FLLFFILPSVRDLASHKSRG came in with an amyloid nucleation score of 0.099 ± 0.19.

As for CNHVLTNRLMHSSKNRCLFI, the amyloid nucleation score result was “inactive”.

In the case of CFFSRFILYPSLTLYMTMLR, the amyloid nucleation score entry is “inactive”.

As to YQFFDASLIAR, the amyloid nucleation score entry is “inactive”.

Turning to RRAAEKFFNEPTWERHLVSG, the amyloid nucleation score result is “inactive”.

In the case of RCWLKRAWVWSQKVSDRSTW, the amyloid nucleation score entry is “inactive”.

SVIASRSLIYD: the amyloid nucleation score result was “inactive”.

TTRIVSNCCMLIVL had an amyloid nucleation score of 1.29 ± 0.12.

For MAIFKLFVPFIFLIEFCYMV, the amyloid nucleation score result was “inactive”.

For ELIMCCHEYSVLAMRLLA, the amyloid nucleation score entry was “inactive”.

On to YVGTYNFICEAYALDMTEQW, for which the amyloid nucleation score result was “inactive”.

As to FANKTRYSPWSCNPVFWYDR, the amyloid nucleation score entry was “inactive”.

Take TEYVMSQNHLKQW: the amyloid nucleation score result was “inactive”.
